According to US11110182B2, “Multifunctional RNA nanoparticles and methods for treating cancer and therapeutic resistant cancer” (University of Cincinnati, priority 2016, dated 2021):

Columns and labels:
[1] = tested on: ERα target genes TFF-1, c-Myc, cyclin D1 and MMP-9; assay: Gene expression in xenograft tumor tissues by real-time PCR; format: in vivo, athymic nude mice
Source text: FIG. 6A) Whole lung tissues were fixed, embedded, and sectioned for H&E staining, and FIG. 6B) metastasis foci in the whole lung tissues were then counted. Arrow indicates the metastasis foci. Scale bar: 100 μm. FIG. 6C) After digesting tumor tissues with trypsin and 0.1% collagenase, tumor cells were stained for CD44 and CD24, and FIG. 6D) analyzed for CD44^+CD24^−/low stem cell population using flow cytometry. FIG. 6E) Total RNA in the tumor tissues was extracted using TRIZOL reagent, and the expression of TFF-1, FIG. 6F) c-Myc, FIG. 6G) cyclin D1, and FIG. 6H) MMP-9 were determined by real-time PCR.
Cell culture. Human breast cancer luciferase-overexpressing BT474 and MDA-MB-231 cells were maintained in DMEM medium (Hyclone, Thermo Scientific) supplemented with 10% fetal bovine serum (FBS, Sigma) and 1% penicillin/streptomycin (Corning) at 37° C. in a humidified atmosphere with 5% CO2.^53 • Generation of pRNA nanoparticles. The two strands of pRNA were synthesized with the DNA templates, which were amplified with overlapping primers (Sigma) by PCR methods, using a T7 promoter-controlled in vitro RNA transcription system as previously described^33 (Table 1). All the CTP and UTP used for synthesis of the pRNA nanoparticles were 2′-fluoro modified, except the control unmodified pRNA nanoparticles used in the stability assays. Following an overnight transcription at 37° C., RNA strands were purified using RNA clean and concentrator kits (ZYMO research) and examined by 8 M urea denatured 8% PAGE gel. pRNA nanoparticles were assembled by mixing the equal molar amounts of p1 and p2 strands and gradually annealing from 90° C. to 20° C. in 1×RNA annealing buffer containing 50 mM Tris-HCl (pH 7.5), 50 mM NaCl and 1 mM EDTA on a PCR machine. The generated pRNA nanoparticles were examined by 8% native PAGE gels as previously described.^33 To generate AF647-conjugated pRNA nanoparticles, a 5′-termial AF647-conjugated RNA strand was synthesized (TriLink) for annealing. • Characterization of pRNA nanoparticles. The hydrodynamic diameter and Tm value of pRNA nanoparticles were determined using dynamic light scattering and TGGE assay, respectively, as previously described.^54 The AFM imaging of the pRNA nanoparticles was performed at the University of Nebraska Medical Center imaging facility as previously reported.^55 Briefly, the pRNA nanoparticles (5 μL) were deposited on APS modified mica ^56 for a total of 2 min of incubation time. Excess samples were washed with DI water and dried under a flow of Argon gas. AFM images in air were acquired using MultiMode AFM NanoScope IV system (Bruker Instruments) operating in tapping mode with 1.5 Hz scanning rate. TESPA probes from Bruker were used for tapping mode imaging. […] For stability analyses, the pRNA nanoparticles were treated with RNase A, 8 M urea, or 10% FBS supplemented DMEM medium at 37° C., respectively. The integrity of the pRNA nanoparticles was examined through native PAGE gel electrophoresis. • pRNA nanoparticle cellular uptake assay. BT474 and MDA-MB-231 cells were seeded into 4-well Lab-Tek chamber slides (Nalge Nunc international, Thermo scientific) and incubated with 10 μg/mL AF647-conjugated pRNAs at 4° C. for 30 min. After washing with PBS for three times, cells were incubated at 37° C. for another hour. Cells were then fixed with 4% formaldehyde, permeated with 0.25% Trinton X-100, and stained with FITC-conjugated β-actin antibody (Sigma) and DAPI (Sigma). pRNA nanoparticle uptake was examined using a laser scanning confocal microscope (Zeiss). For flow cytometry analyses, BT474 cells were incubated with AF647-labeled pRNA nanoparticles at 37° C. for 3 h. After washing three times with PBS, the cellular uptake of pRNAs was determined using a BD LSRFortessa™ flow cytometer. • Real-time PCR. […]

MCF-7/TAM cells = assay: MTT assay, MCF-7/TAM cells; format: cell-based, human; settings: 10 μg/mL pRNA and 1 μM tamoxifen, 48 h
Description: FIGS. 10A-10D. Evidence that pRNA-HER2apt-siMED1 nanoparticles silenced MED1 expression and sensitized two other HER2+ breast cancer cells to tamoxifen treatment. FIG. 10A) Two HER2-overexpressing breast cancer cell lines MCF7/TAM and FIG. 10B) MCF7/HER2, were treated with 10 μg/mL pRNA-HER2apt-siMED1 nanoparticles or scramble control for 48 h, and then MED1 protein level was determined using western blots. FIG. 10C) MCF7/TAM and FIG. 10D) MCF7/HER2 cells were treated with 10 μg/mL pRNA nanoparticles and/or 1 μM tamoxifen (TAM) as indicated for 48 h, and then cell growth was determined using an MTT assay.
Since MED1 has recently been reported to play key roles in tamoxifen resistance of human breast cancer, the combinational effects of pRNA-HER2apt-siMED1 nanoparticles with tamoxifen on the growth and metastatic potential of BT474 cells was examined. […] The combinational effect of pRNA-HER2apt-siMED1 nanoparticles with tamoxifen treatment on two other HER2-overexpressing breast cancer cells MCF-7/HER2 and MCF-7/TAM were also confirmed (FIGS. 10C-D).

[2] = tested on: ERα target genes TFF-1, c-Myc, cyclin D1; assay: mRNA levels of ERα target genes by real-time PCR in BT474 cells; format: cell-based, human; settings: BT474, 48 h
Description: FIG. 3A) BT474 cells were incubated with 10 μg/mL control and pRNA-HER2apt-siMED1 nanoparticles for 48 h, and MED1 mRNA level was determined by real-time PCR. FIG. 3B) BT474 cells were incubated directly with (as indicated by -) or transfected with indicated pRNAs using lipofectamine 2000. At 48 h post treatment, MED1 protein levels were determined by western blotting. FIG. 3C) BT474 cells were treated with 10 μg/mL pRNA nanoparticles for 48 h and assayed for cell viability by MTT assay. FIG. 3D) Cells were treated as above and seeded for migration, and FIG. 3E) invasion transwell assays. Scale bar: 50 μm. FIG. 3F) After pRNA treatment for 48 h, the mRNA levels of ERα target genes TFF-1, FIG. 3G) c-Myc, and FIG. 3H) cyclin D1 in BT474 cells were determined by real-time PCR.
Cell culture. Human breast cancer luciferase-overexpressing BT474 and MDA-MB-231 cells were maintained in DMEM medium (Hyclone, Thermo Scientific) supplemented with 10% fetal bovine serum (FBS, Sigma) and 1% penicillin/streptomycin (Corning) at 37° C. in a humidified atmosphere with 5% CO2.^53 • Generation of pRNA nanoparticles. The two strands of pRNA were synthesized with the DNA templates, which were amplified with overlapping primers (Sigma) by PCR methods, using a T7 promoter-controlled in vitro RNA transcription system as previously described^33 (Table 1). All the CTP and UTP used for synthesis of the pRNA nanoparticles were 2′-fluoro modified, except the control unmodified pRNA nanoparticles used in the stability assays. […] The hydrodynamic diameter and Tm value of pRNA nanoparticles were determined using dynamic light scattering and TGGE assay, respectively, as previously described.^54 The AFM imaging of the pRNA nanoparticles was performed at the University of Nebraska Medical Center imaging facility as previously reported.^55 Briefly, the pRNA nanoparticles (5 μL) were deposited on APS modified mica ^56 for a total of 2 min of incubation time. […] After washing three times with PBS, the cellular uptake of pRNAs was determined using a BD LSRFortessa™ flow cytometer. • Real-time PCR. […]

B1: pRNA-HER2apt-siMED1: 3-WJ pRNA nanoparticle bearing a HER2-targeting RNA aptamer and two different MED1 siRNAs; strands p1 SEQ ID NO: 3, p2 SEQ ID NO: 4 (nucleic acid)
chain 1: GGACAGUGAAAGUGAGUCAAAGGAUCAAUCAUGGCCAAAGAUGUUACUUUGAGAGCCUU
chain 2: GGCUCUCAAAGUAACAUCUAAGGCCAUGUGUAUGUGGGGGGAGGACGAUGCGGUCUGCUGUGCUUGAUAUGCCCCAGACGACUCGCCCCCCACAUACUUUGUUGAUCCAAUGACUCACUUUCACUGUCCUU
modifications: 2'-F modification; third strand may lack entry; pRNA-HER2apt-siMED1, p1; pRNA-HER2apt-siMED1, p2
confirmed: combinational effect with tamoxifen on cell growth (MCF-7/TAM cells)
further inhibited: MMP-9 expression in tumor tissues ([1]; combined with tamoxifen) | TFF-1 expression in tumor tissues ([1]; combined with tamoxifen) | c-Myc expression in tumor tissues ([1]; combined with tamoxifen) | cyclin D1 expression in tumor tissues ([1]; combined with tamoxifen)
significantly down-regulated: MMP-9 expression in tumor tissues ([1]; pRNA treatment) | TFF-1 expression in tumor tissues ([1]; pRNA treatment) | c-Myc expression in tumor tissues ([1]; pRNA treatment) | cyclin D1 expression in tumor tissues ([1]; pRNA treatment) | TFF-1 mRNA expression [2] | c-Myc mRNA expression [2] | cyclin D1 mRNA expression [2]
